Reference: the supplement of paper PMC9112550, “Optimization of the antimicrobial peptide Bac7 by deep mutational scanning” (BMC Biology, 2022)

The sequences below were run on Escherichia coli TOP10 (assay: shrunken log2 fold change of peptide-encoding DNA abundance (4.5 h post-induction vs induction); higher = less antimicrobial activity (less host growth inhibition)). Conditions: time post-induction: 4.5 h; library: site-saturation at positions 5, 18, 19, 20.
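Note: peptides expressed intracellularly from a pBAD plasmid library in pooled LB shake-flask culture, induced with 0.3% L-arabinose, DNA abundance read by NGS, three biological replicates, DESeq2 with apeglm shrinkage.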

| Sequence | shrunken log2 fold change |
| --- | --- |
| RRIRKRPPRLPRPRPRPYMFPRP | -0.109 |
| RRIRMRPPRLPRPRPRPHGQPRP | 0.155 |
| RRIRGRPPRLPRPRPRPPKMPRP | 0.348 |
| RRIRDRPPRLPRPRPRPGVFPRP | -0.00239 |
| RRIRTRPPRLPRPRPRPDQWPRP | -0.00805 |
| RRIRGRPPRLPRPRPRPMTHPRP | 0.708 |
| RRIRWRPPRLPRPRPRPYFQPRP | 1.83 |
| RRIRERPPRLPRPRPRPLAKPRP | 0.0848 |
| RRIRMRPPRLPRPRPRPYEDPRP | 0.477 |
| RRIRHRPPRLPRPRPRPEDWPRP | 0.83 |
| RRIRRRPPRLPRPRPRPGQWPRP | 0.312 |
| RRIRKRPPRLPRPRPRPQNSPRP | -0.0372 |
| RRIRPRPPRLPRPRPRPCYWPRP | -0.294 |
| RRIRNRPPRLPRPRPRPTFWPRP | 0.323 |
| RRIRHRPPRLPRPRPRPCYRPRP | -0.121 |
| RRIRIRPPRLPRPRPRPMVNPRP | -0.294 |
| RRIRCRPPRLPRPRPRPSQPPRP | 0.075 |
| RRIRARPPRLPRPRPRPKWTPRP | -0.00127 |
| RRIRTRPPRLPRPRPRPLFHPRP | -0.193 |
| RRIRCRPPRLPRPRPRPWRMPRP | -0.116 |
| RRIRMRPPRLPRPRPRPRCLPRP | -0.0778 |
| RRIRGRPPRLPRPRPRPPEFPRP | 1.01 |
| RRIRHRPPRLPRPRPRPDHEPRP | -0.018 |
| RRIRCRPPRLPRPRPRPFNWPRP | -0.648 |
| RRIRTRPPRLPRPRPRPKICPRP | -0.292 |

| Sequence | shrunken log2 fold change |
| --- | --- |
| RRIRGRPPRLPRPRPRPSCAPRP | 1.08 |
| RRIRSRPPRLPRPRPRPMMKPRP | 1.75 |
| RRIRGRPPRLPRPRPRPDAWPRP | 1.17 |
| RRIRVRPPRLPRPRPRPMYLPRP | -0.0313 |
| RRIRLRPPRLPRPRPRPMIYPRP | -0.0701 |
| RRIRGRPPRLPRPRPRPDHTPRP | 0.0269 |
| RRIRPRPPRLPRPRPRPTVIPRP | -0.28 |
| RRIRERPPRLPRPRPRPKCAPRP | 0.0581 |
| RRIRPRPPRLPRPRPRPSRRPRP | -0.179 |
| RRIRKRPPRLPRPRPRPDVIPRP | 0.153 |
| RRIRQRPPRLPRPRPRPQIEPRP | -0.0133 |
| RRIRQRPPRLPRPRPRPENKPRP | -0.578 |
| RRIRARPPRLPRPRPRPLNLPRP | 0.0866 |
| RRIRYRPPRLPRPRPRPSRMPRP | -0.303 |
| RRIRHRPPRLPRPRPRPADCPRP | -0.395 |
| RRIRQRPPRLPRPRPRPAELPRP | -0.00135 |
| RRIRQRPPRLPRPRPRPDDNPRP | 0.0317 |
| RRIRFRPPRLPRPRPRPHSEPRP | -0.276 |
| RRIRDRPPRLPRPRPRPNKCPRP | -0.104 |
| RRIRWRPPRLPRPRPRPNHVPRP | -0.651 |
| RRIRIRPPRLPRPRPRPRHMPRP | -0.12 |
| RRIRIRPPRLPRPRPRPPGFPRP | 0.195 |
| RRIRQRPPRLPRPRPRPSSIPRP | -0.0146 |
| RRIRLRPPRLPRPRPRPMVDPRP | -0.00377 |
| RRIRVRPPRLPRPRPRPFCSPRP | 0.0261 |

| Sequence | shrunken log2 fold change |
| --- | --- |
| RRIRCRPPRLPRPRPRPGNQPRP | -0.644 |
| RRIRVRPPRLPRPRPRPGDMPRP | -0.136 |
| RRIRSRPPRLPRPRPRPIVFPRP | -0.0485 |
| RRIRHRPPRLPRPRPRPEHMPRP | -0.177 |
| RRIRSRPPRLPRPRPRPTFFPRP | -0.0698 |
| RRIRNRPPRLPRPRPRPCLAPRP | -0.69 |
| RRIRRRPPRLPRPRPRPYARPRP | 0.0203 |
| RRIRVRPPRLPRPRPRPSGAPRP | 0.197 |
| RRIRWRPPRLPRPRPRPPGFPRP | 0.209 |
| RRIRKRPPRLPRPRPRPHQWPRP | 0.264 |
| RRIRLRPPRLPRPRPRPDTTPRP | -0.138 |
| RRIRWRPPRLPRPRPRPKGSPRP | 0.0359 |
| RRIRLRPPRLPRPRPRPQFHPRP | -0.414 |
| RRIRWRPPRLPRPRPRPWAAPRP | 0.351 |
| RRIRKRPPRLPRPRPRPKARPRP | 0.0808 |
| RRIRFRPPRLPRPRPRPPAAPRP | 1.32 |
| RRIRDRPPRLPRPRPRPKRWPRP | 0.0314 |
| RRIRQRPPRLPRPRPRPGREPRP | 0.221 |
| RRIRCRPPRLPRPRPRPLWSPRP | -0.233 |
| RRIRRRPPRLPRPRPRPNRSPRP | 0.339 |
| RRIRCRPPRLPRPRPRPTVWPRP | 0.553 |
| RRIRQRPPRLPRPRPRPTVDPRP | 0.349 |
| RRIRFRPPRLPRPRPRPTSCPRP | -0.0685 |
| RRIRCRPPRLPRPRPRPGHWPRP | 0.0171 |
| RRIRDRPPRLPRPRPRPNFIPRP | -0.0733 |
